In data set [1] the target is T1, Solute carrier family 22 member 1 (Rattus norvegicus, UniProt Q63089).
T1 sequence (Q63089 whole entry): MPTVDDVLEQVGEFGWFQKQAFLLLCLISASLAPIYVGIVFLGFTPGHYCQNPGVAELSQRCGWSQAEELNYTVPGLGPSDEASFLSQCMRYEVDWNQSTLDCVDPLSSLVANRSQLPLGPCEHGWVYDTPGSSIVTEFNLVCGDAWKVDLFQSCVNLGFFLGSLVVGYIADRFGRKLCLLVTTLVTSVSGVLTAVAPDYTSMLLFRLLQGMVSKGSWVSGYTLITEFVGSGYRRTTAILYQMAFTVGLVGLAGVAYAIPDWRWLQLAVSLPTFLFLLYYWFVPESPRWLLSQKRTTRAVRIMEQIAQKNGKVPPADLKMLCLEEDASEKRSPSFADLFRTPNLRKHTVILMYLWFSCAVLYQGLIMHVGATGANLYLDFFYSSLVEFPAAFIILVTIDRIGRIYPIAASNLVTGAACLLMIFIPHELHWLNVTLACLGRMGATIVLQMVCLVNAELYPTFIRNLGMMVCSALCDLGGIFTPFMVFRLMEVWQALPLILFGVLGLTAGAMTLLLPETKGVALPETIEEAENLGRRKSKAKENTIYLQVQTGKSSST
Kind of data set: TP_TRANSPORTER: uptake in Xenopus laevis oocytes. It counts as functional, cell-based. As to conditions: oocyte.

The target in data set [2] is T1, Solute carrier family 22 member 1. Nature of the data set: (§1) TP_TRANSPORTER: uptake (electrogenesis) in Xenopus laevis oocytes. It is filed as functional, cell-based. As to conditions: oocyte.
Substrate in data set [3]: CC(=O)OCC[N+](C)(C)C
The data set is described as §1. It is filed as functional, cell-based, Oocyte.

Substrate in data set [4]: NCCc1c[nH]c2ccc(O)cc12
The description is as §1. It is filed as functional, cell-based, Oocyte.

Substrate in data set [5]: NCCc1c[nH]cn1
Nature of the data set: cells, lysate or membranes named.

Substrate in data set [6]: NCCc1ccc(O)c(O)c1
Nature of the data set: cells, lysate or membranes named.

The text below walks through data of ChEMBL document CHEMBL2074147, “Monoamine neurotransmitter transport mediated by the polyspecific cation transporter rOCT1” (FEBS Lett, 1996).

Where “and” joins values, the source holds several entries; their conditions need not be identical. Identical values can stand only once.

On to `C=C[C@H]1C[N@@]2CC[C@H]1C[C@@H]2[C@@H](O)c1ccnc2ccc(OC)cc12` [QUINIDINE], for which the Activity entry in data set [1] is “is not a substrate [-]”.
The same measure, in the same setting: then `C=C[C@H]1C[N@@]2CC[C@H]1C[C@H]2[C@H](O)c1ccnc2ccc(OC)cc12` [QUININE], with “is not a substrate [-]”.
As for `NC[C@H](O)c1ccc(O)c(O)c1` [NOREPINEPHRINE], in data set [2], the Activity entry is “substrate [+]”.

B1: Solute carrier family 22 member 1 (Rattus norvegicus) (protein)
chain: T1 sequence (Q63089 whole entry)
In the case of B1, the Km is 46.8 µM in data set [3]; 37.6 µM in data set [4]; 98.6 µM in data set [5]; 19.4 µM and 51 µM in data set [6].
